Experimental findings from US20250074996A1 are described below.

The target of this test is CD3E on the surface of Jurkat-NFAT-Luc cells (UniProt P07766). In words: cell-based or functional assay.
Sequence of CD3E on the surface of Jurkat-NFAT-Luc cells (P07766 23-207): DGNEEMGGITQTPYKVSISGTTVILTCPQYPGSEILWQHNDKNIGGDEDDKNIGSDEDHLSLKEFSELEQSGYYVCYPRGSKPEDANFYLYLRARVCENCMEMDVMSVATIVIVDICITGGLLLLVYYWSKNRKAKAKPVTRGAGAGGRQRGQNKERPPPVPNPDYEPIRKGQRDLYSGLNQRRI

B1: hz11B7.5/SP34.24 (bispecific antibody, V domains shown)
VH 1: QVQLVQSGAEVKKPGSSVKVSCKASGYTFTTYTMHWVRQAPGQGLEWIGFIIPSSGYTSYNQNFKDKVTLTADKSTSTAYMELSSLRSEDTAVYFCTGGQARAYYPLDYWGQGTLVTVSS
VL 1: EIVMTQSPATLSVSPGERATLSCRASQSIGTTIHWYQQKPGQAPRLLIKYASESISGIPSRFSGSGSGTEFTLTISSLQSEDFAVYYCQQSYNWPRTFGGGTKVEIK
VH 2: EVQLVESGGGLVQPGGSLKLSCAASGFTFNTYAMNWVRQASGKGLEWVGRIRSKYNNYATYYADSVKDRFTISRDDSKSTLYLQMNSLKTEDTAVYYCARHGNFGQSYVSWFAYWGQGTTVTVSS
VL 2: QAVVTQEPSLTVSPGGTVTLTCRSSTGAVTTSNYANWVQQKPGQAPRGLIGGTNKRAPGVPARFSGSLLGDKAALTLLGAQPEDEAEYYCALWYSNLWVFGQGTKLTVL
Molecule B1 showed an EC50 of Jurkat-NFAT-Luc luciferase activation; tumor cells 8226 of 5.39 pM, an EC50 of Jurkat-NFAT-Luc luciferase activation; tumor cells ARD of 2.04 pM, an EC50 of Jurkat-NFAT-Luc luciferase activation; tumor cells H929 of 2.72 pM and an EC50 of Jurkat-NFAT-Luc luciferase activation; tumor cells L363 of 2.79 pM. Moreover, the EC50 of Jurkat-NFAT-Luc luciferase activation; tumor cells MM.1S is 1.98 pM and the EC50 of Jurkat-NFAT-Luc luciferase activation; tumor cells U266 came to 4.09 pM.
